Laboratory results taken from patent US20190269788A1 (PIERRE FABRE MEDICAMENT, published 2019).
Read-outs that look alike come from different tables or passages of the source.

What was measured:
[1] = target: T1, human Axl receptor on human tumor cells (SN12C and other lines) (human, UniProt P30530 26-894); experiment: FACS titration on SN12C cells, anti-mouse Alexa 488
T1 construct: also called membrane Axl receptor; cell-surface Axl
Experimental: (§1) After 3 washes in phosphate-buffered saline (PBS) supplemented with 1% BSA and 0.01% NaN₃, cells were incubated with secondary antibody Goat anti-mouse Alexa 488 (1/500° dilution) for 20 minutes at 4° C. After 3 additional washes in PBS supplemented with 1% BSA and 0.1% NaN₃, cells were analyzed by FACS (Facscalibur, Becton-Dickinson). At least 5000 cells were assessed to calculate the mean value of fluorescence intensity.

[2] = target: T2, rhAxl-Fc protein (R and D Systems, cat No 154-AL) (human, UniProt P30530 26-451); experiment: ELISA on coated rhAxl-Fc, anti-mouse IgG-HRP, TMB
T2 construct: Bought; also called recombinant human Axl-Fc
Experimental: (§2) Then 1/2 serial dilutions were done over 12 columns. Plates were washed and a goat anti-mouse (Jackson) specific IgG-HRP was added for 1 h at 37° C. Reaction development was performed using the TMB substrate solution. […] Coating controls were performed in presence of a goat anti-human IgG Fc polyclonal serum labelled with HRP (Jackson, ref 109-035-098) and/or in presence of a HRP-coupled anti-Histidine antibody (R and D Systems, ref: MAB050H).

[3] = target: T1, human Axl receptor on human tumor cells …; experiment: FACS titration on MDA-MB-231 cells, anti-mouse Alexa 488
Experimental: as §1

[4] = target: T3, rhDtk-Fc (R and D Systems, cat No 859-DK) (human, UniProt Q06418 41-428, limits assumed); experiment: ELISA on coated rhDtk-Fc, anti-mouse IgG-HRP, TMB
T3 construct: Bought
T3 sequence (looked up): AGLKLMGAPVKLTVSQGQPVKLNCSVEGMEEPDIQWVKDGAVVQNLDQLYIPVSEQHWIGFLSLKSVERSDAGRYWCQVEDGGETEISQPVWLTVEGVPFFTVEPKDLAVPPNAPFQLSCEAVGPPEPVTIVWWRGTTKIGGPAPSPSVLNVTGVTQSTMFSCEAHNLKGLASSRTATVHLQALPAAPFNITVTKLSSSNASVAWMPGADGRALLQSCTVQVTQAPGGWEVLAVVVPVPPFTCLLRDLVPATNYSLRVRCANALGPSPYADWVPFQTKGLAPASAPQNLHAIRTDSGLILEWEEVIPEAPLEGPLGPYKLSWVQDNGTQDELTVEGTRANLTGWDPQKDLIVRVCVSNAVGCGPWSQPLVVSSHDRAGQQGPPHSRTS
Experimental: as §2

[5] = target: T4, rhMer-Fc (R and D Systems, cat No 891-MR) (human, UniProt Q12866 26-499, limits assumed); experiment: ELISA on coated rhMer-Fc, anti-mouse IgG-HRP, TMB
T4 construct: Bought
T4 sequence (looked up): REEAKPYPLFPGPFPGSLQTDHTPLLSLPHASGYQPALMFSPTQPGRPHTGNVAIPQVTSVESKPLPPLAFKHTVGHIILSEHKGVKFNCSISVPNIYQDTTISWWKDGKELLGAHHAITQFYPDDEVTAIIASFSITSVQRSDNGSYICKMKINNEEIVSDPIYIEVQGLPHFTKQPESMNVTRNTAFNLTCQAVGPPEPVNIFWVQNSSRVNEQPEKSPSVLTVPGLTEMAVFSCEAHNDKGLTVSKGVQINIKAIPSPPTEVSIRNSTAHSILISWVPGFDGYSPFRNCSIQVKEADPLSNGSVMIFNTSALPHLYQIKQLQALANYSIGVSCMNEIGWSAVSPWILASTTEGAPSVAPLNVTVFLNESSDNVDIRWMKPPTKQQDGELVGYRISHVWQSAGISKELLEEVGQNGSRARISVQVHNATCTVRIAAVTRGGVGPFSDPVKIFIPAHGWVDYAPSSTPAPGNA
Experimental: as §2

[6] = target: T5, human IGF-1R, native, on MCF-7 cells or on hIGF-1R transfected cells (human, UniProt P08069 31-1367); experiment: cell-based or functional assay
[7] = target: T5, human IGF-1R, native, on MCF-7 cells or …; experiment: cell-based or functional assay; remark: listed apart in the source
[8] = target: T5, human IGF-1R, native, on MCF-7 cells or …; experiment: cell-based or functional assay; remark: listed apart in the source

T1 sequence (P30530 26-894 D266N limits assumed): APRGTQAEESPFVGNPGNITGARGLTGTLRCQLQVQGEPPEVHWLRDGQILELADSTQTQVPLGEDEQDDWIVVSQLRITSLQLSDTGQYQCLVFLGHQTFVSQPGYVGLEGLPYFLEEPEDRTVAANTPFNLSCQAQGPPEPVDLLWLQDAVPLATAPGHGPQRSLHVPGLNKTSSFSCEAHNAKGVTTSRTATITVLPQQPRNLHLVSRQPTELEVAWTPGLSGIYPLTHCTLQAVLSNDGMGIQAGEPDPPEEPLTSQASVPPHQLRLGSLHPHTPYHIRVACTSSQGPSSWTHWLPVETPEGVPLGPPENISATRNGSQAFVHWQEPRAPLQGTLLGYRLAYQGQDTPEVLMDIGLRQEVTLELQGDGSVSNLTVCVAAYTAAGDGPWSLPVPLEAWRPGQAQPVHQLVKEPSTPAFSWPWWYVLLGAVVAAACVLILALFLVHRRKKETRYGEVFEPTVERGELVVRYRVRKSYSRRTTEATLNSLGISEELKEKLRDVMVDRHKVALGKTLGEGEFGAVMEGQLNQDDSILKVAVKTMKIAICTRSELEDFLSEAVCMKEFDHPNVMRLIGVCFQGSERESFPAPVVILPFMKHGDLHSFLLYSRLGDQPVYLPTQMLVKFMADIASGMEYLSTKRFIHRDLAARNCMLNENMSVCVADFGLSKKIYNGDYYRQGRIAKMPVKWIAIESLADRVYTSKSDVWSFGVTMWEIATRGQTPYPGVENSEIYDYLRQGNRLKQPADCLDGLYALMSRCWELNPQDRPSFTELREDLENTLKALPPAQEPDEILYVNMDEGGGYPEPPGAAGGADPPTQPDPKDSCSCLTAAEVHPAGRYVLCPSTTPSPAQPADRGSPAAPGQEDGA
T2 sequence (P30530 26-451 D266N): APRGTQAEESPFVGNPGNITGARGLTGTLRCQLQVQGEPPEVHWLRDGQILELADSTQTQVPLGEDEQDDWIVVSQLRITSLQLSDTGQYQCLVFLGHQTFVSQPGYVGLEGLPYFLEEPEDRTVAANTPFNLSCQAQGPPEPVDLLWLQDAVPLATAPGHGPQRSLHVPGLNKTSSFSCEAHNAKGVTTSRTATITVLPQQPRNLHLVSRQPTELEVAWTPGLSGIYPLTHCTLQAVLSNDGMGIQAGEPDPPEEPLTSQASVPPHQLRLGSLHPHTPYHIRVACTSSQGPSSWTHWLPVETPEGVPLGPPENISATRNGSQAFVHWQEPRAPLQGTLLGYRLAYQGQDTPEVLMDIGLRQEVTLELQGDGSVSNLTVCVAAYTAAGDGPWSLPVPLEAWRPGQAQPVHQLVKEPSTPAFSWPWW

B1: m1613F12 (antibody, V domains shown)
VH: EVHLQQSGAELVKPGASVKLSCTASGFNIRDTYIHWVKQRPEQGLEWIGRLDPANGHTKYGPNFQGRATMTSDTSSNTAYLQLSSLTSEDTAVYYCARGAYYYGSSGLFYFDYWGQGTTLSVSS
VL: DVQITQSPSYLATSPGETITINCRASKSISKYLAWYQEKPGKTNKLLIYSGSTLQSGVPSRFSGSGSGTDFTLTISSLEPEDFAMYFCQQHHEYPLTFGAGTELELK
notes: Murine monoclonal antibody, detected with anti-mouse IgG; also called murine 1613F12; hybridoma I-4505
EC50 (read off the curve) [1]: ~0.9 nM | EC50 (read off the curve) [2]: ~1 nM | EC50 (read off the curve) [3]: ~1 nM | binding result [4]: no binding (tested: log (M) -7.5 (about 3e-8 M)) | binding result [5]: no binding (tested: log (M) -7.5 (about 3e-8 M))

B2: hz208F2 VH3/VL3 (antibody, human IgG1, kappa, V domains shown)
VH: QVQLVQSGAEVKKPGASVKMSCKASGYTFTSYYIYWVKQAPGQGLEWLGWIWPGDGSTKYNEKFQGRVTLTADKSSNTAYMFLSSLRSEDTAVYFCASPMITPNYAMDYWGQGTLVTVSS
VL: DIQMTQSPSSLSASVGDRVTISCRASQDISKYLNWYQQKPGKAPKLLIYYTSRLHSGVPSRFSGRGSGTDYSLTISNLQPEDFATYFCQQGSTLPYTFGGGTKVEIKR
% internalization (MCF-7, 10 µg/ml) [6]: 87% | ΔMFI (MCF-7, 4°C minus 37°C, 4 h) [6]: 344 MFI

B3: c212A11 (antibody, human IgG1, kappa, V domains shown)
VH: QVQLQQSGPELVKPGASVKMSCKASGYTFTSYYIHWVKQRPGQGLEWIGWIWPGDGSTKYNEKFKGKTTLTADKSSSTAYMFLSSLTSEDSAVYFCASPMITPNYAMDYWGQGASVTVSS
VL: DIQMTQTTSSLSASLGDRVTISCRASQDINKYLNWYQQQPDGTVKLLIYYTSRLHSGVPSRFSGRGSGTDYSLTISNLEQEDIATYFCQQGSTLPYTFGGGTKLEIKR
phosphorylation of hIGF-1R as % of phosphorylation induced by IGF-1 (MCF-7, 10 µg/ml Ab) [7]: < 10% | ΔMFI (MCF-7, 4°C minus 37°C, 4 h) [8]: 322 MFI

B4: m212A11 (antibody, V domains shown)
VH: QVQLQQSGPELVKPGASVKMSCKASGYTFTSYYIHWVKQRPGQGLEWIGWIWPGDGSTKYNEKFKGKTTLTADKSSSTAYMFLSSLTSEDSAVYFCASPMITPNYAMDYWGQGASVTVSS
VL: DIQMTQTTSSLSASLGDRVTISCRASQDINKYLNWYQQQPDGTVKLLIYYTSRLHSGVPSRFSGRGSGTDYSLTISNLEQEDIATYFCQQGSTLPYTFGGGTKLEIK
inhibition of hIGF-1R phosphorylation in response to IGF-1 (MCF-7) [7]: > 80%

B5: c213B10 (antibody, human IgG1, kappa)
heavy: not shown
light: DIQMTQTTSSLSASLGDRVTISCRASQDISKYLNWYQQQPDGTIKLLIYYTSRLHSGVPSRFSGRGSGTDYSLTITNLEQEDIATYFCQQGSALPYTFGGGTKLEIKRTVAAPSVFIFPPSDEQLKSGTASVVCLLNNFYPREAKVQWKVDNALQSGNSQESVTEQDSKDSTYSLSSTLTLSKADYEKHKVYACEVTHQGLSSPVTKSFNRGEC
phosphorylation of hIGF-1R as % of phosphorylation induced by IGF-1 (MCF-7, 10 µg/ml Ab) [7]: < 10% | ΔMFI (MCF-7, 4°C minus 37°C, 4 h) [8]: 369 MFI

B6: m214F8 (antibody, V domains shown)
VH: QVQLQQSGSELVKPGASVKLSCKASGYTFTSYYIHWVKQRPGQGLEWIGWIWPGDGSTKYNERFKGKTTLTADKSSSTAYMFLSSLTSEDSAVYFCASPMITPNYAMDYWGQGASVTVSS
VL: DIQMTQTTSSLSASLGDRVTFSCRASQDISKYLNWYQQQPDGTIKLLIYYTSRLHSGVPSRFSGRGSGTDYSLTITNLEQEDIATYFCQQGSALPYTFGGGTKLEIK
inhibition of hIGF-1R phosphorylation in response to IGF-1 (MCF-7) [7]: > 80%

B7: m219D6 (antibody, V domains shown)
VH: QVQLQQSGPELVKPGDSVKMSCKASGYSFTSYFIHWVKQRPGQGLEWIGWIWPGDGSTKYNEKFKGKTTLTTDKSSSTAYMFLNSLTSEDSAVYFCASPMITPNYAMDYWGQGASVTVSS
VL: DIQMTQTTSSLSASLGDRVTISCRASQDISKYLNWYQQQPDGTVKLLIYYTSRLHSGVPSRFSGRGSGTDYSLTISNLEQEDIATYFCQQGSTLPYTFGGGTKLEIK
inhibition of hIGF-1R phosphorylation in response to IGF-1 (MCF-7) [7]: > 80%

B8: c219D6 (antibody, human IgG1, kappa, V domains shown)
VH: QVQLQQSGPELVKPGDSVKMSCKASGYSFTSYFIHWVKQRPGQGLEWIGWIWPGDGSTKYNEKFKGKTTLTTDKSSSTAYMFLNSLTSEDSAVYFCASPMITPNYAMDYWGQGASVTVSS
VL: DIQMTQTTSSLSASLGDRVTISCRASQDISKYLNWYQQQPDGTVKLLIYYTSRLHSGVPSRFSGRGSGTDYSLTISNLEQEDIATYFCQQGSTLPYTFGGGTKLEIKR
phosphorylation of hIGF-1R as % of phosphorylation induced by IGF-1 (MCF-7, 10 µg/ml Ab) [7]: < 10% | ΔMFI (MCF-7, 4°C minus 37°C, 4 h) [8]: 353 MFI

B9: m208F2 (antibody, V domains shown)
VH: QVQLQQSGPELVKPGASVKMSCKASGYTFTSYYIYWVKQRPGQGLEWLGWIWPGDGSTKYNEKFKDKTTLTADKSSNTAYMFLSSLTSEDSAVYFCASPMITPNYAMDYWGQGASVTVSS
VL: DIQMTQTTSSLSASLGDRVTISCRASQDISKYLNWYQQQPDGTIKLLIYYTSRLHSGVPSRFSGRGSGTDYSLTISNVEQEDIATYFCQQGSTLPYTFGGGTKLEIK
inhibition of hIGF-1R phosphorylation in response to IGF-1 (MCF-7) [7]: > 80% | % internalization (MCF-7, 10 µg/ml) [6]: 88% | ΔMFI (MCF-7, 4°C minus 37°C, 4 h) [6]: 294 MFI

B10: c208F2 (antibody, human IgG1, kappa, V domains shown)
VH: QVQLQQSGPELVKPGASVKMSCKASGYTFTSYYIYWVKQRPGQGLEWLGWIWPGDGSTKYNEKFKDKTTLTADKSSNTAYMFLSSLTSEDSAVYFCASPMITPNYAMDYWGQGASVTVSS
VL: DIQMTQTTSSLSASLGDRVTISCRASQDISKYLNWYQQQPDGTIKLLIYYTSRLHSGVPSRFSGRGSGTDYSLTISNVEQEDIATYFCQQGSTLPYTFGGGTKLEIKR
phosphorylation of hIGF-1R as % of phosphorylation induced by IGF-1 (MCF-7, 10 µg/ml Ab) [7]: < 10% | ΔMFI (MCF-7, 4°C minus 37°C, 4 h) [8]: 288 MFI | % internalization (MCF-7, 10 µg/ml) [6]: 82% | ΔMFI (MCF-7, 4°C minus 37°C, 4 h) [6]: 278 MFI

B11: c214F8 (antibody, human IgG1, kappa)
heavy: not shown
light: DIQMTQTTSSLSASLGDRVTFSCRASQDISKYLNWYQQQPDGTIKLLIYYTSRLHSGVPSRFSGRGSGTDYSLTITNLEQEDIATYFCQQGSALPYTFGGGTKLEIKRTVAAPSVFIFPPSDEQLKSGTASVVCLLNNFYPREAKVQWKVDNALQSGNSQESVTEQDSKDSTYSLSSTLTLSKADYEKHKVYACEVTHQGLSSPVTKSFNRGEC
phosphorylation of hIGF-1R as % of phosphorylation induced by IGF-1 (MCF-7, 10 µg/ml Ab) [7]: < 10% | ΔMFI (MCF-7, 4°C minus 37°C, 4 h) [8]: 403 MFI

B12: m213B10 (antibody, V domains shown)
VH: QVQLQQSGSELVKPGASVKMSCKASGYTFTSYYIHWVKQRPGQGLEWIGWIWPGDGSTKYNERFKGKTTLTADKSSSTAYMFLSSLTSEDSAVYFCASPMITPNYAMDYWGQGASVTVSS
VL: DIQMTQTTSSLSASLGDRVTISCRASQDISKYLNWYQQQPDGTIKLLIYYTSRLHSGVPSRFSGRGSGTDYSLTITNLEQEDIATYFCQQGSALPYTFGGGTKLEIK
inhibition of hIGF-1R phosphorylation in response to IGF-1 (MCF-7) [7]: > 80%
